B1: EPB41L3 (parent)
chain: SDYISEFRFAPNHTKELEDKVIEL
B2: ZNF263 (parent)
chain: QRTHTGEKPYKCPECGEIFAHSSN

Variants of: B1
Experiment: protein stability index of a GFP-peptide fusion (GPS, HEK-293T) (PSI 1-6); higher = more stable
Conditions: c terminus: a fixed tail appended
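Further: lentivirally expressed fusions sorted by FACS into six bins by GFP to DsRed ratio, PSI derived from sequencing read proportions per bin multiplied by bin number.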

Protein stability index of substitutions, site by site:
I22: Q 2.92; R 3.03; S 3.18; T 2.56; V 2.58; W 2.45; Y 2.29
E23: A 1.9; C 1.38; D 2.01; F 3.17; G 1.72; H 2.18; I 1.55; K 1.75; L 1.93; M 1.92; N 1.42; P 1.82; Q 2.05; R 2.02; S 2.09; T 1.96; V 2.38; W 1.46; Y 2.38
L24: A 2.42; C 3.05; D 3.11; E 2.65; F 2.31; G 3.33; H 2.65; I 2.12; K 2.96; M 2.16; N 2.25; P 2.31; Q 2.71; R 2.69; S 2.69; T 2.28; V 2.18; W 2.44; Y 2.08

Variants of: B2
Experiment: as above
Conditions: c terminus: a fixed tail appended

Protein stability index of substitutions, site by site:
N24: D 3.88; T 3.54; A 3.74; M 2.75; Q 3.65; E 3.15; L 2.95; I 2.65; F 2.74
K11: V 3.17; R 3.23; H 3.39; W 3.23; D 4.28; G 3.54; Q 3.13; C 3.62; L 3.39; F 3.23; T 2.98; P 4.12; M 2.97
G6: R 2.51; M 3.04; H 3.33; C 4.26; A 3.27; S 3.38; L 3.27; D 3.23; W 2.74; Q 3.49; V 2.79; Y 2.64; I 2.98
E7: C 3.93; V 2.35; I 2.62; D 3.08; T 3.01; S 3.05; H 3.44; F 2.71; Y 2.36; K 3.29; A 2.65; G 3; M 3.4; P 3.42
E14: T 3.12; S 3.77; Q 2.73; R 3.77; A 4.22; I 3.25; M 3.82; L 2.34; P 3.52; W 2.63; V 2.95; F 3.09; Y 2.97; N 4.24
P13: Q 3.67; A 3.78; T 3.34; K 3.59; N 4.29; M 2.71; E 4.69; W 2.71; V 3.48; G 3.71; S 3.41; D 4.34; F 2.52; L 3.56; Y 3.57
A20: M 3.25; L 2.63; T 3.11; P 3.53; V 3.04; D 3.67; N 3.55; F 3.18; Q 3.59; H 3.45
H21: R 3.16; K 3.78; L 2.3; D 2.5; T 3.15; S 3.43; I 2.05; W 1.95; Y 2.86; V 2.35
Y10: M 3.66; L 3.55; I 3.59; S 3.98; A 3.4; K 3.93; N 4.17; G 3.48; W 3.46; T 4.55; V 3.93; H 3.7
I18: W 2.41; C 3.87; L 3.18; K 3.83; T 3.9; F 2.97; G 4.05; V 3.56; D 3.52; H 3.29
T5: Q 3.65; A 3.25; F 2.92; C 3.81; Y 3.11; R 2.27; G 3.41; L 2.99; P 2.74; W 2.33; E 2.89; K 3; S 3.21
G16: D 3.9; W 2.64; H 3.31; I 2.67; V 3.61; K 3.27; F 2.92; M 3.45; S 3.14; T 3.43; Q 3.23
P9: G 3.58; A 3.52; H 3.78; M 3.12; T 3.43; C 3.53; K 3.62; F 3.22; E 3.26; I 2.83; R 3.94; N 3.58; W 2.74
C12: Q 4.35; R 4.2; V 3.31; H 4.13; D 5.18; F 4.12; A 4.27; P 4.42; K 4.26; N 4.45; G 3.98; L 3.77
Q1: D 3.36; W 2.01; E 3.46; C 4.76; S 3.14; I 2.54; N 3.46; A 2.49; G 3.06; M 2.71
E17: C 4.6; G 2.53; F 4.53; I 2.85; Y 4.23; V 2.6; D 3.13; Q 3.86; L 2.6; N 3.83; W 3.01; S 4.02; M 3.27; K 3.98
R2: S 3.88; G 4.29; C 4.86; I 3.32; W 2.9; T 3.45; K 2.92; E 3.78; D 4.06; M 2.62; N 4.07; H 4.35
S23: E 4.67; L 2.75; R 2.77; V 2.71; A 3.61; M 2.81; D 3.5; Y 2.73; C 5.55; I 3.24; G 3.23; F 2.81; W 2.36; H 4.71
T3: S 3.43; G 4.28; W 2.53; H 3.51; L 3.31; D 3.5; C 3.27; K 3.28; R 2.85; E 3.51
S22: G 2.92; N 3.38; M 2.49; P 2.88; K 3.16; T 2.92; V 2.91; C 4.15; L 2.39; A 2.88; E 3.62; Q 2.81; R 2.38
H4: G 3.25; C 3.29; R 3.58; E 3.02; A 2.92; F 3.37; V 2.85; S 3.7; M 3.44; Q 3.52
F19: P 3.75; V 3.46; G 4.28; Q 3.83; C 4.9; R 3.75; Y 3.7; E 4.25; W 2.47; I 3.37; A 4.38; L 3.16; M 3.56; D 4.87; N 4.37; S 3.84; T 4.1
K8: H 3.35; P 3.4; M 3.4; Y 3.34; D 3.3; I 2.66; G 3.81; C 5.15; W 3.3; S 3.36; N 3.46; V 3; T 3.28; L 3.41
C15: G 4.96; E 4.82; F 3.39; D 4.8; M 4.88; L 3.97
